Experimental data: CN117025546A

Columns and labels:
[1] = target: GST标签蛋白 (Schistosoma japonicum (Blood fluke)) [GST: P08515]; test: indirect ELISA, GST tag protein coated in dilution series, antibody at 1 μg/mL
[2] = target: GST标签蛋白 (Schistosoma japonicum (Blood fluke)) [GST: P08515]; test: indirect ELISA, GST tag protein coated at 10000 to 0.64 ng/mL, antibody at 1 μg/mL

B1: 抗GST单克隆抗体 (杂交瘤细胞株62H9分泌, CCTCC NO:C2021187) (antibody, V domains shown)
VH: EVQLQESGPELVKPGASVRMSCKASGYTFTSYFMHWVKQKSGQGLEWIGYINPYHDGTNYNEKFKGKATLTSDKSSSTAYMELSSLTSEDSAVYSCARSQRLHWYFDVWGAGTTVTVSS
VL: DIVLTQSPTSLAVSLGQRATISCRASQGVSASSYSYIHWYQQKPGQPPKLLIKYASNLESGVPARFSGSGSGTDFTLNVHPVEEEDTATYYCQHSWEIPLTFGGGTKLEIK
Question: B1 was tested. Which OD (450nm) at antigen 20ng/ml [1] did it give?
Answer: 1 OD

Question: What about the 亲和力 [2] of the same binder?
Answer: 20 ng/mL
